The Km is the concentration of substrate that gives half-maximal velocity. What is called kcat is the number of substrate molecules converted per active site and unit of time at saturation.

In this data set the test system is O=C(Cc1cccs1)N[C@@H]1C(=O)N2C(C(=O)O)=C(/C=C/c3ccc([N+](=O)[O-])cc3[N+](=O)[O-])CS[C@H]12. Put plainly: purified protein. The settings on record: 50 mM NaH2PO4 pH 7.0, 0.1% BSA, 30 °C, 10-100 μM nitrocefin.

Take “BLA (TEM-1 β-lactamase) (Escherichia coli)”: the Km came to 120 ± 3 µM and the kcat was found to be 1200 ± 30 s⁻¹.

Values taken from paper PMC4748275, “SpyRing interrogation: analyzing how enzyme resilience can be achieved with phytase and distinct cyclization chemistries” (Scientific Reports, 2016).
